Test results: patent publication US11504441B2, “Radiolabeled compounds targeting the prostate-specific membrane antigen” (PROVINCIAL HEALTH SERVICES AUTHORITY, priority 2019, dated 2022)

Key:
[1] = tested on: PSMA-expressing LNCaP cancer xenografts; conditions: mouse, in vivo
in vivo = conditions: male, NODSCID 1L2RγKO, mouse, iv, total radioactivity; for excreta dose per gram or mL at 1 h: Urine uptake

| SMILES | Blood: Salivary ratio [1] | Tumor: Blood ratio [1] | Tumor: Kidney ratio [1] | Tumor: Muscle ratio [1] | Tumor: Salivary ratio [1] | tissue uptake at 1 h (in vivo; Adrenal glands uptake) [%ID/g] | tissue uptake at 1 h (in vivo; Blood uptake) [%ID/g] | tissue uptake at 1 h (in vivo; Bone uptake) [%ID/g] | tissue uptake at 1 h (in vivo; Brain uptake) [%ID/g] | tissue uptake at 1 h (in vivo; Fat uptake) [%ID/g] | tissue uptake at 1 h (in vivo; Heart uptake) [%ID/g] | tissue uptake at 1 h (in vivo; Intestine uptake) [%ID/g] | tissue uptake at 1 h (in vivo; Kidneys uptake) [%ID/g] | tissue uptake at 1 h (in vivo; Lacrimal uptake) [%ID/g] | tissue uptake at 1 h (in vivo; Liver uptake) [%ID/g] | tissue uptake at 1 h (in vivo; Lungs uptake) [%ID/g] | tissue uptake at 1 h (in vivo; Muscle uptake) [%ID/g] | tissue uptake at 1 h (in vivo; Pancreas uptake) [%ID/g] | tissue uptake at 1 h (in vivo; Salivary uptake) [%ID/g] | tissue uptake at 1 h (in vivo; Seminal uptake) [%ID/g] | other results |
| --- | --- | --- | --- | --- | --- | --- | --- | --- | --- | --- | --- | --- | --- | --- | --- | --- | --- | --- | --- | --- | --- |
| O=C(O)CCC[C@H](NC(=O)N[C@@H](CCCCNC(=O)[C@H](Cc1c2ccccc2cc2ccccc12)NC(=O)Cc1cccc(CNC(=O)CN2CCN(CC(=O)O)CCN(CC(=O)O)CCN(CC(=O)O)CC2)c1)C(=O)O)C(=O)O [68Ga-HTK04037, metal not drawn] | 3.55 ± 0.46 | 26.3 ± 10.5 | 3.02 ± 1.22 | 165 ± 52.9 | 92.2 ± 34.5 | 0.19 ± 0.03 | 0.51 ± 0.12 | 0.07 ± 0.01 | 0.02 | 0.06 ± 0.01 | 0.15 ± 0.03 | 0.28 ± 0.03 | 4.47 ± 0.9 | 0.07 ± 0.04 | 0.2 ± 0.03 | 0.46 ± 0.09 | 0.08 ± 0.03 | 0.11 ± 0.01 | 0.14 ± 0.03 | 8.45 ± 10 | tissue uptake at 1 h (in vivo; Spleen uptake): 0.24 ± 0.05 %ID/g; tissue uptake at 1 h (in vivo; Stomach uptake): 0.12 ± 0.05 %ID/g; tissue uptake at 1 h (in vivo; Tail uptake): 0.41 ± 0.16 %ID/g; tissue uptake at 1 h (in vivo; Testes uptake): 0.18 ± 0.04 %ID/g; tissue uptake at 1 h (in vivo; Thyroid uptake): 0.16 ± 0.03 %ID/g; tissue uptake at 1 h (in vivo; Tumor uptake): 13.1 ± 4.69 %ID/g; excreta dose per gram or mL at 1 h (in vivo): 396 ± 114 %ID/g |
| O=C(O)CN1CCN(CC(=O)O)CCN(CC(=O)NC[C@H]2CC[C@H](C(=O)N[C@@H](Cc3c4ccccc4cc4ccccc34)C(=O)NCCCC[C@H](NC(=O)N[C@@H](C[C@@H](F)C(=O)O)C(=O)O)C(=O)O)CC2)CCN(CC(=O)O)CC1 [68Ga-HTK04033, metal not drawn] | 4.38 ± 0.57 | 31.7 ± 5.00 | 5.64 ± 1.37 | 221 ± 53.4 | 138 ± 21.1 | 0.16 ± 0.03 | 0.59 ± 0.12 | 0.08 ± 0.01 | 0.02 | 0.1 ± 0.03 | 0.18 ± 0.06 | 0.2 ± 0.04 | 3.31 ± 0.34 | 0.04 ± 0.03 | 0.29 ± 0.09 | 0.5 ± 0.05 | 0.09 ± 0.04 | 0.15 ± 0.08 | 0.13 ± 0.02 | 0.1 ± 0.04 | tissue uptake at 1 h (in vivo; Spleen uptake): 0.19 ± 0.03 %ID/g; tissue uptake at 1 h (in vivo; Stomach uptake): 0.07 ± 0.03 %ID/g; tissue uptake at 1 h (in vivo; Tail uptake): 0.66 ± 0.5 %ID/g; tissue uptake at 1 h (in vivo; Testes uptake): 0.17 ± 0.05 %ID/g; tissue uptake at 1 h (in vivo; Thyroid uptake): 0.18 ± 0.03 %ID/g; tissue uptake at 1 h (in vivo; Tumor uptake): 18.5 ± 4.05 %ID/g; excreta dose per gram or mL at 1 h (in vivo): 440 ± 211 %ID/g |
